Target: Recombinant mouse PrP lacking FT (90-230) (mouse) (UniProt P04925)
Experiment: SPR
Conditions: bispecific antibody

For “scPOM-bi, POM1-POM2 bispecific single chain antibody”, the Kd was 3.6 nM and the koff was 0.00031 s⁻¹.

Source: article PMC6181439
